Results reported in paper PMC2603313, “Direct Inhibition of GSK3β by the Phosphorylated Cytoplasmic Domain of LRP6 in Wnt/β-Catenin Signaling” (PLoS ONE, 2008).
Numbering of substitutions follows the chain as printed. In names and notes the source's numbering stands. Ends that are not written are not given here.

B1: GST-fused LRP6 miniCL (residues 1470–1510 of human LRP6), phosphorylated by GSK3β and CK1 (domain or fragment, UniProt O75581 1470-1510, looked up)
chain: SSSSSSTKGTYFPAILNPPPSPATERSHYTMEFGYSSNSPS
modifications: also: GST-fused, end not given here, phosphorylated by GSK3β and CK1ε, sites not given here
notes: LRP6, human, intracellular fragment miniCL, residues 1470-1510 (Ser/Thr rich cluster and first PPPSPxS motif); also called phosphorylated GST-miniCL; GST-miniCL phos; source: E. coli, purified (Glutathione-agarose, HiTrapQ), then phosphorylated in vitro with recombinant GSK3β and CK1ε
B2: GST-fused LRP6 miniCLMT (residues 1470–1510 of human LRP6, S1490A), phosphorylated by GSK3β and CK1 (domain or fragment, UniProt O75581 1470-1510, looked up)
chain: B1 chain with S21A
modifications: also: GST-fused, end not given here, phosphorylated in vitro by GSK3β and CK1ε, sites not given here
notes: LRP6, human, intracellular fragment miniCL, residues 1470-1510, with Ser1490 replaced by Ala; also called phosphorylated GST-miniCLMT; GST-miniCLMT phos; source: E. coli, purified (Glutathione-agarose, HiTrapQ), then phosphorylated in vitro with recombinant GSK3β and CK1ε
B3: GST-fused LRP6 miniCLMT (residues 1470–1510 of human LRP6, S1490A), not phosphorylated (domain or fragment, UniProt O75581 1470-1510, looked up)
chain: B1 chain with S21A
modifications: also: GST fusion (GST left off)
notes: LRP6, human, intracellular fragment miniCL, residues 1470-1510, with Ser1490 replaced by Ala; also called GST-miniCLMT; source: E. coli, purified (Glutathione-agarose, HiTrapQ)

Key:
GSK3β [1] = biological target: T1, GSK3β (Mus musculus, UniProt Q9WV60); assay: In vitro GSK3β activity assay with synthetic peptides (phosphorylation of primed β-catenin N-terminal fragment); assay type: biochemical; details: at 100 µM; primed β-catenin N-terminal fragment 7 µM, 1 mM ATP, pH 8.0, 30 min at 37°C; 4–7 independent experiments
T1 construct: The catalytic domains of mouse GSK3β (residues 27–393) and CK1ε (residues 1–319) were expressed and purified; made in house
Source text: We synthesized one dually-phosphorylated (NPPPpSPApTERSH, where pS or pT designates a phosphorylated Ser or Thr residue), two singly-phosphorylated (NPPPSPApTERSH and NPPPp[…]) and one non-phosphorylated ([…]) peptides derived from the first PPPSPxS motif of LRP6 (Fig. 1A). To measure the GSK3β activity toward β-catenin in vitro, we utilized a β-catenin N-terminal fragment (residues 1–133), whose Ser45 was prephosphorylated by CK1, as a substrate (Ha et al., 2004). Each synthetic peptide was added to a reaction mixture containing the purified GSK3β enzyme and the substrate β-catenin N-terminal fragment. The GSK3β activity was determined through measurement of the intensity of the supershifted (retarded) β-catenin bands (Fig. S3), which represent the phosphorylated product species (Fig. S4), on an SDS-polyacrylamide gel (Figs. S3, S4, S5, S6, S7). […] This corresponds well with the results of Zeng et al., who reported that the first Ser residue in the PPPSPxS motif has a more important role in Wnt/β-catenin signaling than the second Ser residue.
The catalytic domains of mouse GSK3β (residues 27–393) and CK1ε (residues 1–319) were expressed and purified as previously described. The N-terminal region (residues 1–133) of β-catenin was expressed in Escherichia coli as a GST-fusion protein with a TEV protease cleavage site and then purified using Glutathione-agarose. Subsequently, the GST tag was cleaved using recombinant TEV protease and was removed by repeated HiTrapQ anion-exchange chromatography. The N-terminal region of β-catenin was then phosphorylated by incubation with the catalytic domain of CK1ε (0.28 mg/ml) at 37°C for 20 min in 50 mM Tris buffer (pH 8.0) containing 10 mM MgCl2, 10 mM 2-mercaptoethanol, and 2 mM phenylmethylsulfonylfluoride. The phosphorylated β-catenin fragment was then further purified using HiTrapQ anion-exchange chromatography to remove the CK1ε enzyme. […]

GSK3β [2] = biological target: T1, GSK3β; assay: Far western binding of GSK3β to GST-fused LRP6 fragments; details: for Binding of GSK3β: GST-fusion treated with GSK3β and CK1, GSK3β 1 µg/ml, three independent experiments
Source text: We first investigated whether the intracellular region of LRP6 binds to GSK3β in a phosphorylation-dependent manner. To detect binding, we used recombinant GST-fused LRP6 fragments (miniCL, miniCLMT, PPPSPxS, PPPAPxS; Fig. 1A) and GSK3β proteins in a far western binding assay. This assay is appropriate as the LRP6 cytoplasmic region is expected to be natively unstructured and therefore should not suffer from denaturation artifacts. Prior to the binding reaction, the GST-fused LRP6 fragments were phosphorylated by GSK3β and CK1 and transferred to a PVDF membrane. The membrane was incubated with GSK3β, and bound GSK3β was detected with an anti-GSK3β antibody. GSK3β bound to GST-miniCL and GST-miniCLMT, but not GST-PPPSPxS or GST-PPPAPxS (Fig. 4). […] Also, given the measured Ki value of the single PPPSPxS motif, it was expected that the single PPPSPxS motif might exert a limited role in recruiting the GSK3β.
Figure 4 Phosphorylation-dependent binding of the LRP6 intracellular region to GSK3β in the absence and presence of Axin. (A) GST (Lane 1), GST-fused miniCL (Lane 3; GST-miniCL), GST-fused miniCLMT (Lane 5; GST-miniCLMT), and their phosphorylated forms (Lanes 2, 4, 6; indicated by “phos”) were loaded onto an SDS-polyacrylamide gel, and then transferred to PVDF membrane (Left top). […] The phosphorylated protein bands show an upshifted mobility on the gel. The PVDF membrane was incubated with 1 µg/ml of GSK3β to allow GSK3β to bind to the proteins in the membrane. The bound GSK3β was visualized on the transferred proteins by western blotting using an anti-GSK3β antibody (Left bottom), and the GSK3β protein used to obtain the phosphorylated forms of each protein is indicated by GSK3β*. The band intensities of bound GSK3β were measured from the three independent experiments (Right). […] The phosphorylated GST-fused miniCL was transferred to PVDF membrane, and the membrane was incubated with GSK3β (0.1 µg/ml) and GST-fused Axin GBD domain protein (0, 10 µM). Error bars indicate the standard deviation from three independent experiments. […]

[3] = biological target: T2, catalytic domain of mouse GSK3β (residues 27–393) (mouse, UniProt Q9WV60 27-393); assay: far-Western, overlay or dot blot; GST-fused LRP6 fragments (with or without prior treatment with GSK3β and CK1) run on SDS-PAGE and transferred to PVDF; membrane incubated 3 h with 1 µg/ml GSK3β in 5% skim milk in TBST (20 mM Tris pH 7.6, 137 mM NaCl, 0.05% Tween 20); bound GSK3β detected with anti-GSK3β antibody; details: both partners purified
T2 construct: GSK3β (glycogen synthase kinase 3 beta), mouse, catalytic domain, residues 27-393; also called recombinant GSK3β catalytic domain; source: recombinant, expressed and purified as previously described [32]

Molecule | Binding of GSK3β (GSK3β [2]) | binding result [3] | further results
NPPPSPApTERSH [PPPSPx(p)S, singly-phosphorylated peptide (second Ser/Thr) derived from the first PPPSPxS motif of LRP6] | – | – | Inhibitory effect on GSK3β activity toward β-catenin (GSK3β [1]): only a marginal inhibitory effect
GST-miniCL: GST-fused human LRP6 miniCL, residues 1470–1510 (SSSSSSTKGTYFPAILNPPPSPATERSHYTMEFGYSSNSPS; also: GST fusion (GST left off)) | bound | – | –
GST-miniCLMT: GST-fused miniCLMT, residues 1470–1510 with substitution at Ser1490 with Ala (SSSSSSTKGTYFPAILNPPPAPATERSHYTMEFGYSSNSPS; also: GST fusion (GST left off)) | bound | – | Effect of S1490A mutation on GSK3β binding (GSK3β [2]): does not affect binding
B1 | – | binds | –
B2 | – | binds | –
B3 | – | binds | –
